Measurements published in patent US8796201B2 (The Board of Trustees of the Leland Stanford Junior …, priority 2002, dated 2014).

Key:
[1] = Double-blind crossover gluten challenge: 72-hour quantitative fecal fat test; assay type: in vivo, human (Celiac Sprue patients)
Excerpt: (§1) It was first established that a low-dose, short-term (5-10 g/day for 14 days) gluten oral supplement induces fat and carbohydrate malabsorption when given to asymptomatic Celiac Sprue patients on an otherwise gluten free diet. This protocol was modified to examine the effect of gluten pre-treated with pepsin, trypsin and chymotrypsin (PTC-Gluten) as compared to PTC-Gluten additionally treated with PEP (PTC-Gluten+PEP). In this study, Celiac patients maintaining a gluten-free diet ingested a supplement of 5 g/day gluten as PTC-Gluten or PTC-Gluten+PEP in an orange-lemon juice vehicle for 14 days in a double-blind crossover manner. A 6-week washout interval between individual arms of the crossover trial allowed patients to recover completely from the effects, if any, of the test material in the first arm.
(§2) Subjects and protocols: This study was approved by the Institutional Review Board of the Palo Alto Medical Foundation in Palo Alto, Calif., and all participants in the study were counseled regarding risks and signed an informed consent document. 22 patients were recruited who were in symptomatic remission on a gluten-free diet. Two patients dropped out of the study, one near the end of the first stage and the other prior to the second stage. The 20 patients who completed the study included 7 men and […] aged 21 to 78 (mean age 49). The time since diagnosis for the 20 patients ranged from 3 months to 18 years (mean 6 years). Patients provided copies of their initial small-intestinal biopsy pathology report and laboratory reports documenting a history of at least one positive celiac antibody (gliadin, endomysial or transglutaminase) to verify a diagnosis of Celiac Sprue. They also completed an entry questionnaire inquiring about their medical history, adherence to the gluten-free diet, and current symptoms. The format of the study was a double-blinded crossover in which each patient consumed either a low daily dose of a gluten supplement (5 g; equivalent of one-half slice of bread) that was predigested with pepsin, trypsin and chymotrypsin alone (PTC-Gluten) or PTC-Gluten treated with prolyl endopeptidase (PTC-Gluten+PEP). The PEP in the latter orange juice mixture was completely inactivated through a heating process following proteolysis of the gliadin peptides. […]
(§3) Studied variables: During each stage of the study, patients completed a daily questionnaire inquiring about symptoms and their adherence to the gluten-free diet. […] The serum anti-gliadin IgA antibodies and anti-tissue transglutaminase IgA and IgG antibodies were measured by an enzyme linked immunosorbent assay (ELISA) kit (INOVA Diagnostics, Inc., San Diego, Calif.). […] Total serum IgA levels were determined by an Integra instrument (Roche) (normal <81 mg/dl). […]

PQPQLPYPQPQLP = experiment: Acceleration of brush border mediated digestion by exogenous endoproteases; assay type: biochemical, wheat
Method: FIG. 3. Dose dependent acceleration of brush border mediated digestion by exogenous endoproteases. […] This peptide was digested with 27 ng/μl brush border membranes, either alone, with increasing amounts of exogenous prolyl endopeptidase (PEP, specific activity 28 μU/pg) from Flavobacterium meningosepticum (US Biological, MA), or with additional elastase (E-1250, Sigma, Mo.), bromelain (B-5144, Sigma, Mo.) or papain (P-5306, Sigma, Mo.) (12). After one hour, the fraction of remaining (SEQ ID NO:4) […] (compared to the initial amount at t=0 min) was analyzed and quantified as in FIG. 1.
Alerted by the high proline content as a hallmark of most immunogenic gliadin peptides, a proline-specific endopeptidase was tested for the generation of new, free peptide termini. A literature search on available proteases led to the identification of prolyl endopeptidase (PEP) from Flavobacterium meningosepticum, which is specific for the C-terminal cleavage of prolines and readily available from recombinant sources (Yoshimoto et al. (1991) J. Biochem. 110, 873-8). The stable (SEQ ID NO:4) […] intermediate was digested with BBM in the presence of exogenous PEP. […] As little as 3.5 pg PEP/27 ng BBM protein was sufficient to double the extent of proteolysis of this gliadin fragment compared to incubation with BBM alone. In comparison, other commonly used proteases like papain, bromelain or porcine elastase were much less efficient, requiring 30-fold (papain) or 3000-fold (bromelain, elastase) higher amounts of enzyme compared to PEP to give similar results. Their proteolysis was restricted to the cleavage of the Gln^4-Leu^5 and/or Gln^11-Leu^12 bonds.
A similar preferential cleavage was found for (SEQ ID NO:1) QLQPFP^↓QPQLPY. This is in agreement with the preference of this prolyl endopeptidase for a second proline in the S2′ position (Bordusa and Jakubke (1998) Bioorg. Med. Chem. 6, 1775-80). Based on this P^↓XP motif and on the present data, up to 16 new, major cleavage sites can be predicted in the α2-gliadin sequence, a major source of immunodominant epitopes identified thus far upon PEP treatment. All of them are located in the critical N-terminal part. The internal cleavage by PEP can be expected to generate additional (otherwise inaccessible) substrates for DPP IV and DCP thereby complementing the natural assimilation process of gliadins by the BBM. Thus, the specificity of prolyl endopeptidase is ideally suited for detoxification of persistent immunoactive gliadin peptides in Celiac Sprue.

[2] = Double-blind crossover gluten challenge: 25 g D-xylose 5-hour urine excretion test; assay type: in vivo, human (Celiac Sprue patients)
Excerpt: as §1, §2, §3

[3] = All patients with full Fecal Fat data (N = 17)
[4] = Subgroup with normal to Mild Steatorrhea (N = 8)
[5] = All patients with full xylose data (N = 14)
[6] = Subgroup with normal (>4 gm/5 hrs) Pre-stage Xylose (N = 10)

B1: PEP: prolyl endopeptidase; Examples 1-2: from Flavobacterium meningosepticum (US Biological); Example 11: source not stated (protein, UniProt P27028 21-705, looked up)
Prolyl endopeptidase: QNSNVLKYPETKKVSHTDTYFGTQVSDPYRWLEDDRAEDTKAWVQQEVKFTQDYLAQIPFRDQLKKQLMDIWNYEKISAPFKKGKYTYFSKNDGLQAQSVLYRKDAAGKTEVFLDPNKFSEKGTTSLASVSFNKKGTLVAYSISEGGSDWNKIIILDAETKKQLDETLLDVKFSGISWLGDEGFFYSSYDKPKEGSVLSGMTDKHKVYFHKLGTKQSQDELIIGGDKFPRRYIGAYVTDDQRYLVVSAANATNGNELYIKDLKNKTDFIPIITGFDSNVNVADTDGDTLYLFTDKDAPNKRLVKTTIQNPKAETWKDVIAETSEPLEINTGGGYFFATYMKDAIDQVKQYDKNGKLVRAIKLPGSGNASGFGGEKTEKDLYYSFTNYITPPTIFKYNVTTGNSEVYQKPKVKFNPENYVSEQVFYTSSDGTKIPMMISYKKGLKKDGKNPTILYSYGGFNISLQPAFSVVNAIWMENGGIYAVPNIRGGGEYGKKWHDAGTKMQKKNVFNDFIAAGEYLQKNGYTSKEYMALSGRSNGGLLVGATMTMRPDLAKVAFPGVGVLDMLRYNKFTAGAGWAYDYGTAEDSKEMFEYLKSYSPVHNVKAGTCYPSTMVITSDHDDRVVPAHSFKFGSELQAKQSCKNPILIRIETNAGHGAGRSTEQVVAENADLLSFALYEMGIKSLK
[1]; [3]
  PEP Effective (patients / patients with positive gluten challenge), fecal fat: 5/7
  PEP Effective, fecal fat: 71%
[1]; [4]
  PEP Effective (patients / patients with positive gluten challenge), fecal fat: 4/4
  PEP Effective, fecal fat: 100%
PQPQLPYPQPQLP
  preferred cleavage bond in PQPQLPYPQPQLP: Pro^8-Gln^9 and to a lesser extent the Pro^6-Tyr^7 bond
PQPQLPYPQPQLP; 27 ng/μl BBM, one hour
  amount sufficient to double the extent of proteolysis of PQPQLPYPQPQLP compared to BBM alone: 3.5 pg PEP/27 ng BBM protein
[2]; [5]
  PEP Effective (patients / patients with positive gluten challenge), urine xylose: 4/8
  PEP Effective, urine xylose: 50%
[2]; [6]
  PEP Effective (patients / patients with positive gluten challenge), urine xylose: 3/5
  PEP Effective, urine xylose: 60%
